The supplement of paper PMC9732359
± gives the uncertainty stated by the source.

Assay: protein stability index of a GFP-peptide fusion (yeast GPS) (PSI 1-4); higher = more stable; sorted into four equal gates, so the index is relative within each strain
Procedure, shortened: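 Mid-log yeast cultures in leucine-free medium, carrying a pooled plasmid library, were sorted into four equal gates by their GFP/Cherry fluorescence ratio. Each plasmid expressed Cherry along with GFP fused upstream of a tiled 17-residue yeast protein peptide. Plasmids recovered from each gate were PCR-amplified and Illumina-sequenced, with reads assigned to strains by barcodes. The protein stability index was obtained by summing each gate's read frequency weighted by its gate number.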

Sequence | protein stability index (doa10∆) | protein stability index (pdr5∆) | protein stability index (san1∆) | protein stability index (ubr1∆)
NIKSSISNGNLATGPNL [YOR098C/NUP1] | 2.77 ± 0.09 | 3.18 ± 0.084 | 2.99 ± 0.11 | 2.89 ± 0.065
TQDESEIKDAETSCDNY [SMC4] | 2.26 ± 0.083 | 2.62 ± 0.073 | 3.4 ± 0.056 | 2.98 ± 0.053
RRLPMTMFTAEQSELLK [SNF2] | 2.99 ± 0.073 | 3.08 ± 0.073 | 2.83 ± 0.053 | 2.91 ± 0.055
DDPLENMFGDYSNEPFN [SNF6] | 2.98 ± 0.087 | 2.81 ± 0.069 | 3.26 ± 0.085 | 3.16 ± 0.058
PKNLLKKFIEISDVKIQ [PRP8] | 1.76 ± 0.064 | 1.88 ± 0.067 | 1.76 ± 0.13 | 2.26 ± 0.05
RERIKRGAHVEKTMVKK [PRP8] | – | – | – | 2.78 ± 0.18
EEQRSDTKNSKSESPSE [ISW2] | – | 3.21 ± 0.23 | – | –
FELCSLGDKELWPVAIG [YJR042W/NUP85] | – | – | – | 2.49 ± 0.28
MHLMALHIHGSSNPLGI [COB] | 2.31 ± 0.07 | 2.1 ± 0.059 | 2.1 ± 0.052 | 2.32 ± 0.046
YASKAVPHYNRLDSYKV [RPL25] | 2.11 ± 0.14 | 2.7 ± 0.1 | 2.34 ± 0.12 | 1.47 ± 0.11
VFFDDDPLYDITKVPAL [REC8] | 2.47 ± 0.063 | 2.92 ± 0.082 | 2.7 ± 0.065 | 2.88 ± 0.055
ILNHIGQLTGIYRYKYK [PRP8] | 1.39 ± 0.072 | 1.47 ± 0.075 | 1.26 ± 0.11 | 2.03 ± 0.068
EEGINKFKKEKFDIIIV [SRP54] | 2.58 ± 0.05 | 2.61 ± 0.042 | 2.92 ± 0.043 | 2.69 ± 0.057
WGEQKKAMSSRAGVSQV [RPB2] | 3.27 ± 0.12 | 3.17 ± 0.099 | 3.25 ± 0.071 | 3.32 ± 0.05
TEQTKSKNPLSLTEATK [YLR335W/NUP2] | 3.08 ± 0.045 | 2.97 ± 0.053 | 2.91 ± 0.062 | 3.14 ± 0.051
NGNLTSNQLISNYAASN [SWI1] | 3.13 ± 0.12 | 2.89 ± 0.1 | 2.98 ± 0.11 | 3.1 ± 0.055
DWFTYSYFYRRIHVNPS [BRR2] | 1.86 ± 0.047 | 1.28 ± 0.038 | 1.53 ± 0.057 | 1.52 ± 0.029
VSFYFEDGTIESYNQND [SIN4] | 2.2 ± 0.083 | 2.34 ± 0.1 | 2.41 ± 0.076 | 2.92 ± 0.084
PINLKFLQGESPFSITF [YMR129W/POM152] | 2.53 ± 0.079 | 2.1 ± 0.063 | 2.63 ± 0.063 | 2.32 ± 0.071
VVGQLFQIDNDNIRYAT [SMC2] | 2.67 ± 0.067 | 2.67 ± 0.066 | 2.65 ± 0.065 | 2.88 ± 0.078
NQLLAALVAYTPTDVIG [RRP6] | 1.66 ± 0.045 | 1.39 ± 0.048 | 1.25 ± 0.072 | 1.24 ± 0.032
HMDYDGNIVKEFENKFQ [YMR129W/POM152] | 3.28 ± 0.069 | 3.33 ± 0.082 | 3.36 ± 0.049 | 3.22 ± 0.055
IAEGQKKFATVPTGGAS [RPP2B] | 2.81 ± 0.057 | 2.89 ± 0.056 | 2.69 ± 0.06 | 2.53 ± 0.04
LENQKDLVIVDENELKK [MTW1] | 3.65 ± 0.23 | – | – | –
QRKNIQSLELMIYDDAH [BRR2] | 2.39 ± 0.047 | 2.61 ± 0.051 | 2.54 ± 0.066 | 2.46 ± 0.049
WFCPCHGSHYDISGRIR [RIP1] | – | 2.31 ± 0.18 | 2.64 ± 0.25 | –
FDKVIYHLHPTFANPNR [TAF14] | 1.49 ± 0.091 | 1.44 ± 0.064 | 1.43 ± 0.22 | 1.19 ± 0.057

Sequence | protein stability index (doa10∆) | protein stability index (pdr5∆) | protein stability index (san1∆) | protein stability index (ubr1∆)
KVLGVKDMSPILGELKR [LRP1] | 2.71 ± 0.089 | 3.14 ± 0.068 | 2.88 ± 0.065 | 3.12 ± 0.045
AITISNSIDINYKGLPK [SMC1] | 2.48 ± 0.063 | 2.83 ± 0.054 | 2.54 ± 0.073 | 2.98 ± 0.039
KLYKKIAKFERSEEEVT [YIL149C/MLP2] | 3.25 ± 0.1 | 3.19 ± 0.078 | 3.17 ± 0.064 | 3.3 ± 0.078
DNIYRNLQKIDKDSEEL [MED4] | 2.85 ± 0.078 | 3.16 ± 0.058 | 2.85 ± 0.049 | 3.01 ± 0.054
RTLTAVHDKVLEDMVFP [RPS7B] | 3 ± 0.081 | 3.09 ± 0.069 | 2.81 ± 0.068 | 3.27 ± 0.074
GVTSLGIKATNGVVIAT [PRE8] | 2.82 ± 0.14 | 2.62 ± 0.16 | 3.05 ± 0.1 | 3.28 ± 0.29
VENIERVVMMKYDRKVP [RPO21] | 2.29 ± 0.17 | 2.67 ± 0.2 | 2.13 ± 0.19 | 2.36 ± 0.085
PSDVNIDVMKSQIIPLM [SNU114] | 2.15 ± 0.1 | 1.82 ± 0.053 | 2.65 ± 0.07 | 1.82 ± 0.058
EKPDNSNHNNLNLNNSE [SNF2] | 3.02 ± 0.043 | 3.19 ± 0.051 | 3.15 ± 0.036 | 3.17 ± 0.034
NISKSRAKPVTNSSILL [RRP6] | 2.14 ± 0.063 | 2.23 ± 0.065 | 2.23 ± 0.1 | 2.38 ± 0.097
ENDLLQEFDSELSKEEK [SMC3] | 2.74 ± 0.3 | – | – | 3.03 ± 0.27
DFILSLLHHVSELDSND [YJL039C/NUP192] | 1.93 ± 0.071 | 1.88 ± 0.064 | 1.42 ± 0.11 | 2.4 ± 0.054
PNVDLVTALEVLSLGRP [RGR1] | 1.95 ± 0.11 | 2.1 ± 0.063 | 2.47 ± 0.1 | 2.21 ± 0.058
AQFLRSVVHPGEMVGVL [RPO21] | 2.23 ± 0.081 | 1.93 ± 0.08 | 2.3 ± 0.1 | 1.49 ± 0.054
PNHNSPVVINLDAKNKV [RPO31] | 2.92 ± 0.16 | 3.08 ± 0.19 | – | 3.03 ± 0.24
YRPLTPSSEVYSPIEKE [RRP6] | 2.74 ± 0.071 | 3.03 ± 0.064 | 2.69 ± 0.073 | 2.91 ± 0.066
SVMPPNEVYSAYVVNDT [DLS1] | 2.77 ± 0.087 | 2.95 ± 0.13 | 1.89 ± 0.28 | 3.04 ± 0.082
AVAVVVDPIQSVKGKVV [RPN11] | 2.22 ± 0.1 | 2.64 ± 0.14 | 2.29 ± 0.094 | 2.84 ± 0.18
LPGTEKGRKTNKYANND [CSL4] | 3.22 ± 0.12 | 3.5 ± 0.13 | 3.2 ± 0.072 | 3.41 ± 0.19
LGVPRIKEIINASKVIS [RPO31] | 3.03 ± 0.1 | 2.59 ± 0.2 | 1.49 ± 0.12 | 1.71 ± 0.24
TTPKKIKHKHKKVKLAV [RPS31] | 2.19 ± 0.052 | 1.99 ± 0.1 | 1.34 ± 0.2 | 1.91 ± 0.059
SRNKALELNLSVLHSWV [YJL039C/NUP192] | – | 2.5 ± 0.14 | 2.84 ± 0.08 | 2.51 ± 0.24
SLDNKTLDDLVTKWTNQ [YJL041W/NSP1] | 3.08 ± 0.056 | 3.07 ± 0.069 | 3.05 ± 0.062 | 3.17 ± 0.043
DRTQDRADVEDESNDID [RPC37] | 3.33 ± 0.087 | 3.52 ± 0.092 | 3.13 ± 0.11 | 3.4 ± 0.073
KPAFSFGATTNDDKKTE [YJL041W/NSP1] | 2.92 ± 0.099 | 3.07 ± 0.067 | 3.01 ± 0.058 | 2.89 ± 0.045
LKMMKLIVDTHVQFRLG [PRP8] | 2.53 ± 0.08 | 2.21 ± 0.075 | 2.56 ± 0.059 | 1.93 ± 0.048
